In publication PMC3830488, “WRKY76 is a rice transcriptional repressor playing opposite roles in blast disease resistance and cold stress tolerance”:

T1: MBP-OsWRKY76 (Oryza sativa (rice), UniProt Q6EPZ2 1-327)
T1 sequence: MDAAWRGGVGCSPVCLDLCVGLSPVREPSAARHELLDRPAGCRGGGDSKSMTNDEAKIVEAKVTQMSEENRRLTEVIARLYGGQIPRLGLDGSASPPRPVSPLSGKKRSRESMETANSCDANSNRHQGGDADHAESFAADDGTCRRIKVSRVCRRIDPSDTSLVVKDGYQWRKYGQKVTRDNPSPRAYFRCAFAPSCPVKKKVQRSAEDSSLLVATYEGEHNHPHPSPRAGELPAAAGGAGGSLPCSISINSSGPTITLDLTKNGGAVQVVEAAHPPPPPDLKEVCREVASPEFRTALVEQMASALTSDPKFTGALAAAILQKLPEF


Legend:
MBP-OsWRKY76 [1] = biological target: T1, MBP-OsWRKY76; assay: EMSA; DIG Gel Shift Kit 2nd generation (Roche); buffer, salt, pH and temperature not stated; conditions: protein: recombinant; tags: MBP (N-terminal, pMALc2x); label: DIG
MBP-OsWRKY76 [2] = biological target: T1, MBP-OsWRKY76; assay: competition; excess unlabelled mWB vs DIG-WB; DIG Gel Shift Kit 2nd generation (Roche); buffer, salt, pH and temperature not stated; conditions: protein: recombinant; tags: MBP (N-terminal, pMALc2x)
MBP-OsWRKY76 [3] = biological target: T1, MBP-OsWRKY76; assay: competition; excess unlabelled WB vs DIG-WB; DIG Gel Shift Kit 2nd generation (Roche); buffer, salt, pH and temperature not stated; conditions: protein: recombinant; tags: MBP (N-terminal, pMALc2x)

Binder | binding result (MBP-OsWRKY76 [1]) | further results
WB (W-box probe) (dsDNA) DNA 1: AACTTTGACCAATCTTTCAAGTA DNA 2: TACTTGAAAGATTGGTCAAAGTT | binds | –
mWB (mutated W-box probe) (dsDNA) DNA 1: AACTTTGAACAATCTTTCAAGTA DNA 2: TACTTGAAAGATTGTTCAAAGTT | no binding | –
mWB unlabelled competitor (dsDNA) DNA 1: AACTTTGAACAATCTTTCAAGTA DNA 2: TACTTGAAAGATTGTTCAAAGTT | – | binding result (MBP-OsWRKY76 [2]): no binding
WB unlabelled competitor (dsDNA) DNA 1: AACTTTGACCAATCTTTCAAGTA DNA 2: TACTTGAAAGATTGGTCAAAGTT | – | binding result (MBP-OsWRKY76 [3]): binds
